Measurements taken from paper PMC6375885, “Specific Inhibition of Soluble γc Receptor Attenuates Collagen-Induced Arthritis by Modulating the Inflammatory T Cell Responses” (Frontiers in Immunology, 2019).

Biological target: the molecule itself
Test: immunoprecipitation, non-reducing SDS-PAGE and immunoblot; culture supernatant of transfected HEK293T cells precipitated with α-mouse IL-2Rγ antibody and protein A/G agarose; resolved under non-reducing conditions (DTT-); blotted with biotinylated α-mouse IL-2Rγ antibody; dimer and monomer bands

B1: soluble common gamma chain (sγc), wild type (natural protein)
chain: WSSKVLMSSANEDIKADLILTSTAPEHLSAPTLPLPEVQCFVFNIEYMNCTWNSSSEPQATNLTLHYRYKVSDNNTFQECSHYLFSKEITSGCQIQKEDIQLYQTFVVQLQDPQKPQRRAVQKLNLQNLVIPRAPENLTLSNLSESQLELRWKSRHIKERCLQYLVQYRSNRDRSWTELIVNHEPRFSLPSVDELKRYTFRVRSRYNPICGSSQQWSKWSQPVHWGSHTVEECLQFPPSRI
notes: signal peptide in the construct; common gamma chain (γc, IL-2Rγ), the part before the new C-terminal 9 a.a. of the alternatively spliced soluble form; not part of the membrane form of γc; Secreted; found as a disulfide-linked dimer and as a monomer in the supernatant; The reverse primer has no stop codon, so a C-terminal tag from the vector may follow (surmise; also called WT sγc; soluble γc; …)
Question: Which “stoichiometry N” value does the source give for B1 here?
Answer: 2
